Consider one molecule from PMC4574524 (Journal of immunology (Baltimore, Md. : 1950), 2015).

A word on the Kd: it is the equilibrium constant for the complex coming apart. A low value points to tighter binding. A word on the koff: it is a measure of how fast the partners let go of each other.

The assay concerns the target PFD1235w DBLβ3_D4, wild type (P. falciparum 3D7). Put plainly: SPR. A general note: SPR reads the build-up and loss of mass on a sensor chip optically.

B1: ICAM-1_D1 (domain or fragment)
chain: QTSVSPSKVILPRGGSVLVTCSTSCDQPKLLGIETPLPKKELLLPGNNRKVYELSNVQEDSQPMCYSNCPDGQSTAKTFLTVYWT
In turn, B1 showed a Kd of 2.34 nM and an off-rate constant (koff) of 0.00337 s⁻¹.
